Laboratory results reported in a protein production outcome set (Wang et al. 2014).

Assay: label from the status in PepcDB records

In the case of “YKGKNLIMIQVEALQQFVINSKVENQEITPNLNRWINKSLYFNNFFYQVSSGNTSDAEFLANNSFYPAASGAAYYLYAGNTYSSLAKEMNDNNYYTAVLHGYKEGFWNRNVMYKAEKFKDFFGEKSFNINENVGLGLSDKSFLNQSFNKLKSFSSPYYSFIITLSSHYPYDDTKGYGDFNVGDYEGTLLGNYLKGIHYTDAQLGTFLDKLEKSGIMDNSVVILYGDHYAIPKDKINDLYDFENIKNPTDLDWYELQKVPMLIHFPKDQYKGINSEYSGQIDLYPTIANMFNLPQNYMLGTDLFASKNRNVIFRNGSFTDGNVFYVSWTNTYYDIKTGS”, the protein production is reported as “failed”.

For “MAAPEAEVLSSAAVPDLEWYEKSEETHASQIELLETSSTQEPLNASEAFCPRDCMVPVVFPGPVSQEGCCQFTCELLKHIMYQRQQLPLPYEQLKHFYRKPSPQAEEMLKKKPRATTEVSSRKCQQALAELESVLSHLEDFFARTLVPRVLILLGGNALSPKEFYELDLSLLAPYSVDQSLSTAACLRRLFRAIFMADAFSELQAPPLMGTVVMAQGHRNCGEDWFRPKLNYRVPSRGHKLTVTLSCGRPSIRTTAWEDYIWFQAPVTFKGFRE”, the protein production was “not failed”.

For “MKQILTYLLFIWILLPLKAEEKIYTVDNIPKVHLQNKMQYVCNPAGILSQQACDEIDAMLYALEQQTGIETVVAIVPSIGDKDCFEFSHQLLNQWGVGKKGKDNGLVILLVTDQRCIQFYTGYGLEGILPDAICKRIQMQEMIPYLKKGEWNQGMLAGVKAVCQRLDGSMVNDDEGRGEEGISVSMLLVVILGFITIAGVVGTLAVRASTRCPKCGKHQLQRSSTKLISNRNGVKTEDIIYTCRNCGHTVVRRQQSYDDNYRGRGGGGPFIGGFGGGSFGSGGGGGFSGGSFGGGSGGGGGAGSRFLEHHHHHH”, the protein production was “failed”.

For “MCRYCLIVAARVGAVDDARFDMTAPDLIPIETLFGMPEFSRAQISPDGRLVAYLAPWRGRLNIWVRPVGQGTARRLTGDDTRNIDGFSWTRDTRYLLFIQDTQGDENWHLHRVEVDGAEAVGGKARTVDLTPYSGVRVMGLELSAAFPSKAFVQMNLRTPDLIDLYEVDIESAETRVAALNPGRFVRWIVTPNGPMHAFIINDVGDHELARYENGVFTTLAKLSGRDQPIGPMPLMVAADGESVLVGCNAGSDHTYLAAIDLATGKCRVIDSQPDCSLDTPRPEADPRFPSSLITNPVTGELLAVRYLGKRQQIRPLNLRFAAVLNSLQRLSDGEIGYISCDAGGRQWVAEFWDDRHPGTTWFYEHESGEAHVLGERFSALSAERLVSVRPIDVISRDGLTLPCHVTLPVGFDAKDEPRALPTVLLVHGGPWYRDACVYDPEVQFLANRGYAVLQVNFRGSTGYGKAFMQAAIGEFSGRMHDDLIDGLDWLIGQGIADPARVAIYGCSYGGYAALVGASFTPERFTATISYSGISDLRMLVNGVVPFVQPTLINTYLSYMGDPDIETQNRDMLARSPVSRLDCISKPLLVVHGANDVRVAKAQADMVVERVRANGVEVDYLLNEREGHWFINEDSNIELYRKIERFLARHLRGE”, the protein production was “failed”.

For “MRTPAWLGSGMPLLFVLLWSTGFLGAKFGLPYAEPFTFLAIRLLLAAALLAAFALLSGAPWPGSARLAGHVAVAGLLVHGLYLGGVFLAIEHGMSAGLTSLLVGLQPLATAALAGIWLGEQVSRRQWLGLALGLAGVALVVLGRIHGGADGLAWAAVLVALAAITCGTLYQKRFCGGMDLRTGGVVQYLASGALLGLAALLFESREVQWSTPFVLTLGWLVLGLSFGAVGLLYTLIRHGAASKVASLFYLVPPVTALASWLLFDERLAPAAIGGMLLVMLGVALVNWPGRRA”, the protein production was “failed”.

In the case of “MKAYALVGGPTDLWLHDIKKQLTEAKQNNDLIFGVDRGALFLEELGIIPDVAIGDFDSLQAKDLSRIEKTVKDIRYSNPIKDWTDSEIMVQTVFKDYLADKLIILGASGGRIDHFLINLLMWLNPPINQFAQRVEIIDNHNSIVFFNPGVHIIKKKPDYPYIGFATLSETEDFNISGARYDLNDYSSTYPRVFSSNEFLPNSDYFEISLKKGMIAAIYSKDINRFHNLLEHHHHHH”, the protein production is reported as “not failed”.

For “MSVFMDLNIINSSDKNRLKHIIETAAHLGYSTVAINYVVEPLQKKQEIPNPQSISDLFDKFPVVQGKSSPIKVLNRLTIVASDASHFRPTNEYKKFDLVAVYPKTEKLFHAACMTFDVDIICIAVTEKQPFHFKRAPVNGAIDRGIFFETCYAAAIRDSITRRYTIANAICLMEICKGKNVIVSSGAERQLELRGPYDIANLGLVFSLSEGDAKAAVSTNCRSVLLHGETRATASGVIHTMKKPQILQKEEEETPAAKKARTELA”, the protein production was “failed”.

With “MRIASLVPSITELLFDLGLADQLVARTGFCIHPEPAVRAVAKVGGTKDVKLDRLRALAPTHVVVNIDENRRETVDEIRTFVPHVIVTHPCAPEDNLALYRLLGGIFGRLEHHHHHH” the protein production was “failed”.

In the case of “MFEGERHMFDVQREELIWGDRKLVLETGKTARQADGSVVATYGETTVLATVVAGKEPKAGIDFLPLTVNYQERAYAAGRIPGGYFKREGRPSEKETLVSRLIDRPIRPLFVEGWRNDTQVVVTVLSHDLENDPDIVAMVAASAALTLSGVPFMGPIGAARVGYLNGGYKLNPLVTEIAESTLDLVVAGTQDAVLMVESEAKELSEDVMLGAVMFGHKHFQPVIEAIIRLAEKAAKEPRDFTPPENADVEAAVLAVAETELREAYKKTVKQERYAAVDAVKAKVVAALCPAEGEQKFSPEKVKAAFKEAQSKVVRWNILDTGSRIDGRDVKTVRSIVSEVGVLPRAHGSSLFTRGETQALVVATLGTGEDEQFIDALEGTYKERFLLHYNFPPYSVGETGRMGSPGRREIGHGKLAWRAIRPVLPPAHEFPYTIRVVSEITESNGSSSMASVCGGSLSLMDAGVPLRRPVAGIAMGLILEGERFAVLSDILGDEDHLGDMDFKVAGSEEGITSLQMDIKIAGITEEIMKIALAQAKDGRAHILGEMSKALTAARPELGEYAPRIETMQIPTDKIRDVIGTGGKIIREIVEKTGAKINIEDTGIVKIASSDGKAIKAAYNWIRSIVAEPEAGTIYDGTIVKIMEFGAFVNFFGAKDGLVHISELAAQRVAKVGDVVKEGQKVKVKFLGADERGKIRLSMKVVDQETGEDLTEKLKAERAERGEPEREERSDRGDRGDRGPRRDRGERRRESSGE”, the protein production is reported as “failed”.

In the case of “MNAIVEPRRAQPTDSDAILNALPNPVLLVGPDGKIVDANMAAESFFEISTQLLRRQSLTDLVPFGSPLLALIEQVRVGHSPVNEYKVDLGTPRIGADRQVDLHVAPLNERPGHIVVMLQERTIADKMDRQLTHRSAARSVIALAAMLAHEIKNPLSGIRGAAQLLEQQASAEDRMLTRLICDEADRIVTLVDRMEVFGDDRPVARGPVNIHSVLDHVKRLAQSGFARNIKFIEDYDPSLPPVLANQDQLIQVFLNLVKNAAEAVVDLGSDGEIQLTTAFRPGVRLSVPGKKTRVSLPLEFCVRDNGPGVPEDLLPNLFDPFVTTKPSGSGLGLALVAKIVGDHGGIIECESQPRKTTFRVLMPMFNTAKALQSPNGEDAPASSDASQTAR”, the protein production is reported as “failed”.

In the case of “GKPKTDTDFQTYNGDGFKLQIPSKWNPNKEVEYPGQVLRFEDNFDATSNVIVAITPTDKKSITDFGSPEQFLSQVDYLLGRQAYSGKTDSEGGFESDAVAIANVLETSTAEVGGKQYYYLSILTRTADGNEGGKHQLVTATVNDGKLYICKAQAGDKRWFKGAKKFVENTATSFSLA”, the protein production is reported as “not failed”.

With “MIVEERIYRIRGGKMQEYLKLVREEGIAIQAPILGNLIGYFVTDIGPLSQVIHMWGYASLDDRAERRGKLAEDQRWQAFIPRLSVLIESSENRILLPTDFSPLR” the protein production was “not failed”.

With “MKVYDVTAPIYEGMPVYKNKPEKQPKRTTITNGYVTESRIDMDVHTGTHIDAPLHMVEGGATFETIPLNDLVGPCKLFDLTHVNDRITKDDIAHLDIQEGDFVLFKTKNSFEDAFHFEFIFVAEDAARYLADKQIRGVGIDALGIERAQEGHPTHKTLFSAGVIIIEGLRLKDVPEGRYFMVAAPLKLVGTDAAPARVLLFDREP” the protein production was “not failed”.

With “MLIKLTGGTVYDPANGIDGQVRNLFIRDGRIVHSLNGATPDQEYDLRGKVVMAGAIDMHTHIGGGKVTIARNLLPELEHHHHHH” the protein production was “not failed”.

For “MYKIDEVTKQVGLTKRTLRYYEEIGLIHPPERSEGNIRLYTDEDIARIKRIVEAKEVLGITLQEMQHFLSLKERMEQRRNSENPRDREVIQEIKEMLEKQVQTLDEKMEQMQRVKGELEDSLHRAVTFLENTKGE”, the protein production was “failed”.
